Publication PMC9606172, “Recombinant acetylxylan esterase of Halalkalibacterium halodurans NAH-Egypt: molecular and biochemical study” (AMB Express, 2022)

Substrate: CC(=O)Oc1ccc([N+](=O)[O-])cc1
Test: purified protein
Assay type: biochemical, Halalkalibacterium halodurans
Details: 30 mM Tris-HCl pH 8.0 (general assay), temperature for the Km not given

B1: AXE-HAS10 (Halalkalibacterium halodurans C-125) (protein)
chain: MPLIDMPLTELKEYMGRNPKPDDFTEYWDRALQEMRKVNPNVELIPSDFQTTYAECFHLYFTGVRGARIHAKYVRPRHTSGTHPAVIHFHGYTMNAGEWTGLLHYAALGYSVLAMDVRGQGGLSEDTGGVKGNTHSGHIIRGLDDNADQLLFRHVFLDTAQLANIVMNLPEVDEERVAVTGWSQGGALAIACAALEPKIKKVAPVYPFLSDYQRVWEMDLAEKAYDELQTYFRRFDPQHRREAEIFTKLGYIDIQHLAPLVKGEVLLAVGLMDTVCPPSTQFAMYNKLTTTKSIELYPDFAHEDLPGHRDRIFQFLSDL
notes: full-length ORF, 319 residues, no signal peptide; pET-28a(+) His6 fusion, 33 extra residues N-terminal and 9 C-terminal; E. coli BL21 (DE3) Rosetta; EC 3.1.1.72, CE7
  Km: 96 µM
  kcat: 63.1 s⁻¹
  kcat/Km: 657000 M⁻¹ s⁻¹
